In publication PMC12133307, “Structure, kinetics, and mechanism of Pseudomonas putida sulfoquinovose dehydrogenase, the first enzyme in the sulfoglycolytic Entner-Doudoroff pathway” (Biochemical Journal, 2025):

Molecular target: the molecule itself
Experiment: SEC-MALS; SEC-MALLS, Superdex S200 10/300 GL, 100 mM Tris pH 7.5, 300 mM NaCl, 100 µl at ~2 mg/ml, 0.5 ml/min, 20 °C

B1: Pseudomonas putida SQ dehydrogenase (PpSQDH) (enzyme, Pseudomonas putida SQ1)
chain: MNRHTDTHYPSLADKVVLISGGASGIGRAFVEAFVAQGSRVAFLDLDAEAGQGLAHALGANSLFLPCDVRDIERLKACVAEVERTWGAVDVLINNAARDDRHALADVSVEYWDERMQTNLRHAFFAAQAVAPGMARRGSGAIINMGSISWMRGRPGMVCYTTAKAALNGMTRTLARELGGQGIRINSLVPGAIRTERQDAMWAADPAGLEAASQAFIDQQMLKFRLDASDCARLALFLASDDSRGCTGQNFVVDAGLSIQ
notes: SQ dehydrogenase PpSQ1_00090 of Pseudomonas putida SQ1; Gln260 is the C-terminal residue; no step that removes the tag is described; A second preparation for kinetics was made in 'NEB T7 Express' E. coli (HisTrap, Superdex 75); also called sulfoquinovose dehydrogenase; PpSQ1_00090; source: E. coli BL21(DE3), purified (Ni-NTA IMAC, SEC)
  stoichiometry N: 4
